# Assays:
# Format in all cases: in vivo, human
# [1] = Phase II clinical study of zenocutuzumab with an AR axis-targeting agent in mCRPC patients: safety; conditions: cohort of ten mCRPC patients
# Source text: (§1) This is a Phase II, open-label, multicenter, international study designed to evaluate the efficacy of zenocutuzumab in patients with metastatic mCRPC with evidence of disease progression in accordance with Prostate Cancer Clinical Trials Working Group 3 (PCWG3) criteria on the last line of prior hormonal therapy that included either the second-generation AR antagonist enzalutamide or the androgen synthesis inhibitor abiraterone acetate. Patients will be enrolled and will receive zenocutuzumab in combination with the AR targeting agent on which they experienced disease progression immediately before study entry. A cohort of patients with […] and tensin homolog (PTEN) wild-type status will be enrolled. A safety run-in will be performed in the first 4 to 6 patients.
# (§2) Zenocutuzumab will be administered as a 2-hour IV infusion on Day 1, then Q2W of every 28-day cycle. A flat dose of 750 mg will be administered.
# (§3) Patients will receive zenocutuzumab in combination with one of the following next generation AR signaling inhibitors that the patient was receiving immediately prior to entering the study: • Abiraterone acetate (ZYTIGA®) 1000 mg PO QD in combination with prednisone 5 mg PO twice daily (BID). • Enzalutamide (XTANDIR) 160 mg PO QD.
# (§4) Eligible patients will be enrolled and will receive sequential treatment cycles, with a treatment cycle being 4 weeks (28 days). All patients will receive zenocutuzumab with a flat dose of 750 mg IV Q2W.
# (§5) Following the clinical trial protocol of Example 2, mCRPC patients with histologically confirmed prostate adenocarcinoma were enrolled. Patients who were progressing on either abiraterone acetate or enzalutamide were continued on their backbone AR axis-targeting agents after study enrollment and received treatment with zenocutuzumab in combination. Sites of metastatic involvement included lymph nodes, bone, and/or visceral organs. PTEN status of tumors was established in patients by IHC when sufficient biological material was available, using Roche Ventana Optiview kit DAB and SP218 PTEN antibody using Benchmark Ultra immunohistochemical automated slide stainer. The OptiView DAB IHC Detection Kit (OptiView) is an indirect, biotin-free system for detecting mouse IgG, mouse IgM and rabbit primary antibodies. The kit is intended to identify targets by IHC in sections of formalin-fixed, paraffin-embedded and frozen tissue that are stained on the VENTANA automated slide stainers and visualized by light microscopy. The clinical interpretation of any staining, or the absence of staining, is complemented by morphological studies and evaluation of proper controls.
# Among a cohort of ten patients treated, treatment-emergent adverse events (TEAE) related to study treatment classified as a Grade 3 TEAE or higher were not observed.
# [2] = system: castration-resistant prostate cancer; assay: Phase II clinical study of zenocutuzumab with an AR axis-targeting agent in mCRPC patients: tumor response (RECIST v1.1 / PCWG3)
# Source text: as §1, §2, §3, §4
# Radiological measurement of tumors to assess antitumor effect of zenocutuzumab will be performed by CT scan or MRI. Imaging will be performed according to standard local practice and data will be collected in the electronic case report form. Imaging of all patients will be assessed by the local investigator.
# Whole body bone scintigraphy will be performed every 8 weeks for the first 12 months of treatment and every 12 weeks thereafter. Tumor assessments will be completed according to PCWG3-modified RECIST criteria.
# as §5
# [3] = Single-agent treatment of over 100 patients with MF3958×MF3178: tolerability and immunogenicity
# [4] = zenocutuzumab in combination with abiraterone acetate or enzalutamide
# [5] = Example 4: person with mCRPC, combination with enzalutamide, 6 months
# [6] = Example 5: person with mCRPC, PTEN loss, combination with abiraterone acetate/prednisone, 4 months
substance,measurement,setting,value
"zenocutuzumab: Full length IgG1 bispecific antibody comprising MF3958×MF3178, targeting ERBB2 and ERBB3",treatment-emergent adverse events (TEAE) related to study treatment classified as Grade 3 TEAE or higher,[1]; zenocutuzumab 750 mg IV Q2W in combination with abiraterone acetate or enzalutamide,not observed
same,infusion-related reactions (IRR) reported,[1]; [4],"a single IRR was reported (i.e. Grade 2, related)"
same,safety concerns,[1]; [4],no safety concerns
same,tolerability of the combination,[1]; [4],very well tolerated
same,treatment discontinuation due to an adverse event,[1]; [4],no treatment discontinuation
same,unexpected signals of toxicity,[1]; [4],nor were any unexpected signals of toxicity reported
same,radiographic progression (lymph node),"[2]; Example 4: combination with enzalutamide, after six months of on-going treatment",no evidence of lymph node progression
same,best overall response by RECIST,[2]; [5],stable disease
same,response by bone scans by PCWG3,[2]; [5],no evidence of disease (NED)
same,radiographic progression (lymph node or bone),"[2]; Example 5: combination with abiraterone acetate/prednisone, after five months of on-going treatment",no evidence of lymph node or bone progression
same,best overall response by RECIST,[2]; [6],stable disease
same,response by bone scans by PCWG3,[2]; [6],stable disease
same,best overall response by measurement of target lesions (lymph nodes) under RECIST v1.1 per investigator,"[2]; Example 6: person with mCRPC, PTEN wildtype, combination with enzalutamide",stable disease
same,risk for immunogenicity,[3],low risk for immunogenicity
same,tolerability as a single agent,[3],well tolerated

# From patent US20260167740A1, “MEANS AND METHODS FOR TREATING CASTRATION-RESISTANT PROSTATE CANCER” (Merus N.V., priority 2022, published 2026)
